First the molecules themselves.
B1: glmS ribozyme (parent)
chain: AUAAAAGCGCCAGAACUACAGAAAUGUAGUUGACGAGGAGGAGGUUUAUCGAAUUUUCGGCGGAUGCCUCCAAA

± gives the standard error. For some assays here: This sample holds only a part of the variants without activity.

What all share (details): with glucosamine-6-phosphate
Series [1] covers variants of B1. In words: kcat; higher = faster cleavage; RNA array. The method in brief: (§1)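 E. coli RNA polymerase transcribed barcoded ribozyme variants in situ on sequenced MiSeq chips, which were tracked via a hybridised Cy3 probe at 37 °C. Tiles were imaged over ~14 h after glucosamine-6-phosphate (40 μM to 10 mM) in HEPES/KCl/Mg(OAc)2 buffer was flowed in. Normalised per-tile medians were fit to one- or two-exponential decays for kobs, and kcat and KM came from weighted Michaelis–Menten fits.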

Series [2] covers variants of B1. In words: KM; higher = weaker cofactor use; RNA array. In short, it runs like this: as §1
The variants in series [3] derive from B1. The series can be described thus: self-cleavage kobs at 160 uM GlcN6P; higher = faster cleavage; RNA array. The method in brief: as §1
Variants of B1 are the subject of series [4]. In words: self-cleavage kobs at 640 uM GlcN6P; higher = faster cleavage; RNA array. The method in brief: as §1
Series [5] covers variants of B1. In words: self-cleavage kobs at 2500 uM GlcN6P; higher = faster cleavage; RNA array. The method in brief: as §1
The variants in series [6] derive from B1. In words: self-cleavage kobs at 10000 uM GlcN6P; higher = faster cleavage; RNA array. The method in brief:
as §1

In series [7] the parent is B1. The series can be described thus: self-cleavage kobs at 40 uM GlcN6P; higher = faster cleavage; RNA array. In short, it runs like this:
as §1

Turning to G13A U54C, the kcat with glucosamine-6-phosphate [1] is 0.000629 ± 0.00013 s⁻¹. The Michaelis-Menten constant (KM) with glucosamine-6-phosphate [2] was determined as 2490 ± 920 µM. Also, the “self-cleavage kobs at 160 uM GlcN6P” value with glucosamine-6-phosphate [3] was found to be 2.7e-05 ± 1e-05 s⁻¹. In the series with glucosamine-6-phosphate [4], the “self-cleavage kobs at 640 uM GlcN6P” value came out at 0.000134 ± 2.4e-05 s⁻¹. In the series with glucosamine-6-phosphate [5], the “self-cleavage kobs at 2500 uM GlcN6P” value amounted to 0.000405 ± 6.2e-05 s⁻¹. In addition, in the series with glucosamine-6-phosphate [6], the “self-cleavage kobs at 10000 uM GlcN6P” value was determined as 0.000458 ± 7.1e-05 s⁻¹.

As for G13U U54G C70G, in the series with glucosamine-6-phosphate [1], the kcat is 4.42e-05 ± 4.5e-06 s⁻¹. Further, in the series with glucosamine-6-phosphate [4], the “self-cleavage kobs at 640 uM GlcN6P” value was 5.17e-05 ± 2.4e-05 s⁻¹. Moreover, the “self-cleavage kobs at 2500 uM GlcN6P” value in the series with glucosamine-6-phosphate [5] was determined as 4.17e-05 ± 1.2e-05 s⁻¹. Also, the “self-cleavage kobs at 10000 uM GlcN6P” value with glucosamine-6-phosphate [6] was found to be 4.21e-05 ± 1.5e-05 s⁻¹.

As for U47A U54A, the kcat in the series with glucosamine-6-phosphate [1] was found to be 0.0235 ± 0.0067 s⁻¹. Also, the KM in the series with glucosamine-6-phosphate [2] is 1820 ± 700 µM. Moreover, the “self-cleavage kobs at 40 uM GlcN6P” value with glucosamine-6-phosphate [7] is 0.000584 ± 0.00012 s⁻¹. Moreover, the “self-cleavage kobs at 160 uM GlcN6P” value in the series with glucosamine-6-phosphate [3] came out at 0.00186 ± 0.00037 s⁻¹. Besides, in the series with glucosamine-6-phosphate [4], the “self-cleavage kobs at 640 uM GlcN6P” value was found to be 0.00587 ± 0.001 s⁻¹. For the same variant, the “self-cleavage kobs at 2500 uM GlcN6P” value with glucosamine-6-phosphate [5] came out at 0.0118 ± 0.0025 s⁻¹. Moreover, the “self-cleavage kobs at 10000 uM GlcN6P” value with glucosamine-6-phosphate [6] was 0.0314 ± 0.0084 s⁻¹.

On to U49G G59A, for which the kcat in the series with glucosamine-6-phosphate [1] was less than 1e-05 s⁻¹. For the same variant, in the series with glucosamine-6-phosphate [7], the “self-cleavage kobs at 40 uM GlcN6P” value was less than 1e-05 s⁻¹. Moreover, the “self-cleavage kobs at 160 uM GlcN6P” value in the series with glucosamine-6-phosphate [3] is less than 1e-05 s⁻¹.

Take U65C C68A: the kcat with glucosamine-6-phosphate [1] was less than 1e-05 s⁻¹. Moreover, the “self-cleavage kobs at 40 uM GlcN6P” value with glucosamine-6-phosphate [7] is less than 1e-05 s⁻¹.

Consider U47C U69A, for which the kcat with glucosamine-6-phosphate [1] turned out to be 0.000275 ± 6.6e-05 s⁻¹. Besides, in the series with glucosamine-6-phosphate [7], the “self-cleavage kobs at 40 uM GlcN6P” value was determined as 2.9e-05 ± 1.4e-05 s⁻¹. Further, the “self-cleavage kobs at 640 uM GlcN6P” value in the series with glucosamine-6-phosphate [4] turned out to be 5.97e-05 ± 2.2e-05 s⁻¹. Besides, the “self-cleavage kobs at 2500 uM GlcN6P” value with glucosamine-6-phosphate [5] amounted to 0.000178 ± 5.8e-05 s⁻¹. For the same variant, the “self-cleavage kobs at 10000 uM GlcN6P” value with glucosamine-6-phosphate [6] came to 0.00023 ± 3.1e-05 s⁻¹.

Take A6C G29C: the kcat with glucosamine-6-phosphate [1] was less than 1e-05 s⁻¹. For the same variant, the “self-cleavage kobs at 160 uM GlcN6P” value with glucosamine-6-phosphate [3] was less than 1e-05 s⁻¹.

On to U31A C67A C68U, for which the kcat in the series with glucosamine-6-phosphate [1] came out at 6.87e-05 ± 1.5e-05 s⁻¹. For the same variant, the “self-cleavage kobs at 640 uM GlcN6P” value in the series with glucosamine-6-phosphate [4] stood at 0.000122 ± 3.5e-05 s⁻¹. Moreover, the “self-cleavage kobs at 2500 uM GlcN6P” value with glucosamine-6-phosphate [5] worked out at 7.63e-05 ± 1.4e-05 s⁻¹. For the same variant, in the series with glucosamine-6-phosphate [6], the “self-cleavage kobs at 10000 uM GlcN6P” value was 5.53e-05 ± 1.3e-05 s⁻¹.

Regarding A12C G37A, the kcat in the series with glucosamine-6-phosphate [1] is 0.00391 ± 0.0011 s⁻¹. The KM in the series with glucosamine-6-phosphate [2] was found to be 2210 ± 860 µM. The “self-cleavage kobs at 40 uM GlcN6P” value in the series with glucosamine-6-phosphate [7] was 8.92e-05 ± 1.1e-05 s⁻¹. The “self-cleavage kobs at 160 uM GlcN6P” value in the series with glucosamine-6-phosphate [3] is 0.000248 ± 4e-05 s⁻¹. Further, the “self-cleavage kobs at 640 uM GlcN6P” value with glucosamine-6-phosphate [4] was found to be 0.000756 ± 0.00011 s⁻¹. Besides, the “self-cleavage kobs at 2500 uM GlcN6P” value in the series with glucosamine-6-phosphate [5] came out at 0.00182 ± 0.00028 s⁻¹. For the same variant, in the series with glucosamine-6-phosphate [6], the “self-cleavage kobs at 10000 uM GlcN6P” value was 0.00402 ± 0.00063 s⁻¹.

Consider A48G U55C, for which, in the series with glucosamine-6-phosphate [1], the catalytic constant (kcat) came to 0.000123 ± 9.6e-06 s⁻¹. Besides, the KM in the series with glucosamine-6-phosphate [2] stood at 458 ± 210 µM. Moreover, the “self-cleavage kobs at 640 uM GlcN6P” value with glucosamine-6-phosphate [4] is 7.4e-05 ± 2.3e-05 s⁻¹. Further, in the series with glucosamine-6-phosphate [5], the “self-cleavage kobs at 2500 uM GlcN6P” value amounted to 0.000125 ± 2.5e-05 s⁻¹. Also, the “self-cleavage kobs at 10000 uM GlcN6P” value with glucosamine-6-phosphate [6] is 0.000113 ± 1.3e-05 s⁻¹.

As to U56A C61G, the kcat with glucosamine-6-phosphate [1] is less than 1e-05 s⁻¹.

Regarding U45C U55A, the kcat with glucosamine-6-phosphate [1] was 0.00681 ± 0.0026 s⁻¹. Further, the KM in the series with glucosamine-6-phosphate [2] turned out to be 5900 ± 2800 µM. Besides, the “self-cleavage kobs at 40 uM GlcN6P” value in the series with glucosamine-6-phosphate [7] is 5.89e-05 ± 1.4e-05 s⁻¹. The “self-cleavage kobs at 640 uM GlcN6P” value in the series with glucosamine-6-phosphate [4] is 0.000581 ± 0.00013 s⁻¹. For the same variant, in the series with glucosamine-6-phosphate [5], the “self-cleavage kobs at 2500 uM GlcN6P” value turned out to be 0.00182 ± 0.00067 s⁻¹. The “self-cleavage kobs at 10000 uM GlcN6P” value in the series with glucosamine-6-phosphate [6] came out at 0.00457 ± 0.0012 s⁻¹.

Take C16A G37A: in the series with glucosamine-6-phosphate [1], the kcat was 7.68e-05 ± 2.6e-06 s⁻¹. The KM with glucosamine-6-phosphate [2] worked out at 999 ± 160 µM. For the same variant, the “self-cleavage kobs at 2500 uM GlcN6P” value in the series with glucosamine-6-phosphate [5] came out at 5.79e-05 ± 1.2e-05 s⁻¹. The “self-cleavage kobs at 10000 uM GlcN6P” value in the series with glucosamine-6-phosphate [6] came out at 6.89e-05 ± 9.4e-06 s⁻¹.

Regarding A52U U65C, the kcat in the series with glucosamine-6-phosphate [1] is less than 1e-05 s⁻¹. Also, in the series with glucosamine-6-phosphate [7], the “self-cleavage kobs at 40 uM GlcN6P” value was less than 1e-05 s⁻¹.

With G32A U54A C67G, the kcat with glucosamine-6-phosphate [1] was determined as 0.000168 ± 2.5e-05 s⁻¹. The KM in the series with glucosamine-6-phosphate [2] was found to be 216 ± 100 µM. In the series with glucosamine-6-phosphate [3], the “self-cleavage kobs at 160 uM GlcN6P” value amounted to 8.09e-05 ± 1.6e-05 s⁻¹. The “self-cleavage kobs at 2500 uM GlcN6P” value in the series with glucosamine-6-phosphate [5] was 0.000137 ± 2.7e-05 s⁻¹. Moreover, in the series with glucosamine-6-phosphate [6], the “self-cleavage kobs at 10000 uM GlcN6P” value turned out to be 0.00018 ± 3.3e-05 s⁻¹.

On to G38C C50G, for which the kcat with glucosamine-6-phosphate [1] was 1.28e-05 ± 1.9e-06 s⁻¹.

Turning to U54C C58A, the kcat with glucosamine-6-phosphate [1] stood at 0.000427 ± 0.0001 s⁻¹. For the same variant, in the series with glucosamine-6-phosphate [2], the KM was 3720 ± 1300 µM. The “self-cleavage kobs at 640 uM GlcN6P” value in the series with glucosamine-6-phosphate [4] worked out at 6.93e-05 ± 1.1e-05 s⁻¹. Also, in the series with glucosamine-6-phosphate [5], the “self-cleavage kobs at 2500 uM GlcN6P” value came out at 0.000153 ± 2.3e-05 s⁻¹. In addition, in the series with glucosamine-6-phosphate [6], the “self-cleavage kobs at 10000 uM GlcN6P” value worked out at 0.000361 ± 7.7e-05 s⁻¹.

Consider A42C U56C, for which the kcat with glucosamine-6-phosphate [1] is less than 1e-05 s⁻¹. The “self-cleavage kobs at 40 uM GlcN6P” value in the series with glucosamine-6-phosphate [7] is less than 1e-05 s⁻¹.

G37U U69G: the kcat with glucosamine-6-phosphate [1] turned out to be 4.56e-05 ± 1.6e-05 s⁻¹. In the series with glucosamine-6-phosphate [3], the “self-cleavage kobs at 160 uM GlcN6P” value came out at 3.74e-05 ± 8.6e-06 s⁻¹. Besides, the “self-cleavage kobs at 640 uM GlcN6P” value with glucosamine-6-phosphate [4] came to 6.88e-05 ± 1.5e-05 s⁻¹.

The values are drawn from the supplement of paper PMC7125110.
